This note sets out measurements from patent USRE47150 (Bayer, dated 2018).

Experiment [1] concerns the target T1, human tissue factor pathway inhibitor (TFPI) (human, UniProt P10646 29-304, limits assumed).
T1 construct: bought; also called hTFPI; human TFPI
T1 sequence (looked up): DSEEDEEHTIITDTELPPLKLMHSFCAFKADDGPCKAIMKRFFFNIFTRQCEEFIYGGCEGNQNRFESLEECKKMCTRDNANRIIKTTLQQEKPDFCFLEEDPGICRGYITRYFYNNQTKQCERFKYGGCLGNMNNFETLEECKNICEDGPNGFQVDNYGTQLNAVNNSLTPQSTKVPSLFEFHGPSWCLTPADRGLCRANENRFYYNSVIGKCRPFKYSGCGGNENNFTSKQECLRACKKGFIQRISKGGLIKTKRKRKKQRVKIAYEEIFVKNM
The experiment can be described thus: competitive ELISA.

The target of experiment [2] is T2, mouse tissue factor pathway inhibitor (TFPI) (mouse, UniProt O54819 29-289, limits assumed).
T2 construct: bought; also called mTFPI; murine TFPI
T2 sequence (looked up): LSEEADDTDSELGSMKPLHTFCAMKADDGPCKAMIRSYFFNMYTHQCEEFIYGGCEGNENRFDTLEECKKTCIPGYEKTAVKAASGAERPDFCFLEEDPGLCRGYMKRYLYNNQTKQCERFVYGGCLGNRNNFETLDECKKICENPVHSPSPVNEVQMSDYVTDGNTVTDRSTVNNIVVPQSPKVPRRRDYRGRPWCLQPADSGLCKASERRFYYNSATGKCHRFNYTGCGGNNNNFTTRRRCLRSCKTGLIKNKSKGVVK
The experiment can be described thus: competitive ELISA.

B1: 4B7 HC D62Q+H107M+Y112D/LC D33F+N35I (Fab, V domains shown)
VH: QVQLQQSGPGLVKPSQTLSLTCAISGDSVSSNSAAWSWIRQSPGRGLEWLGIIYKRSKWYNQYAVSVKSRITINPDTSKNQFSLQLNSVTPEDTAVYYCARWHSDKMWGFDDWGQGTLVTVSS
VL: DIVMTQSPLSLPVTPGEPASISCRSSQSLVFSFGITYLNWYLQKPGQSPQLLIYKGSNRASGVPDRFSGSGSGTDFTLKISRVEAEDVGVYYCQQYDSYPLTFGQGTKVEIKR
Take B1: the variant/HC_D62R came to 22.7 ratio in experiment [1] and 31.7 ratio in experiment [2].

B2: 4B7 HC N32D+D62Q+H107M+Y112D/LC N35I (Fab, V domains shown)
VH: QVQLQQSGPGLVKPSQTLSLTCAISGDSVSSDSAAWSWIRQSPGRGLEWLGIIYKRSKWYNQYAVSVKSRITINPDTSKNQFSLQLNSVTPEDTAVYYCARWHSDKMWGFDDWGQGTLVTVSS
VL: DIVMTQSPLSLPVTPGEPASISCRSSQSLVFSDGITYLNWYLQKPGQSPQLLIYKGSNRASGVPDRFSGSGSGTDFTLKISRVEAEDVGVYYCQQYDSYPLTFGQGTKVEIKR
B2: the variant/HC_D62R in experiment [1] is 22.2 ratio; in experiment [2], 16.4 ratio.

B3: 4B7 HC N32D+D62K+Y112D/LC S32R+D33F+N35I+D97T (Fab, V domains shown)
VH: QVQLQQSGPGLVKPSQTLSLTCAISGDSVSSDSAAWSWIRQSPGRGLEWLGIIYKRSKWYNKYAVSVKSRITINPDTSKNQFSLQLNSVTPEDTAVYYCARWHSDKHWGFDDWGQGTLVTVSS
VL: DIVMTQSPLSLPVTPGEPASISCRSSQSLVFRFGITYLNWYLQKPGQSPQLLIYKGSNRASGVPDRFSGSGSGTDFTLKISRVEAEDVGVYYCQQYTSYPLTFGQGTKVEIKR
With B3, the figures for the variant/HC_D62R in experiment [1] and in experiment [2] were 22.7 ratio and 38.8 ratio, respectively.

B4: 4B7 HC D62R+H107M+Y112D/LC F31M+D33F (Fab, V domains shown)
VH: QVQLQQSGPGLVKPSQTLSLTCAISGDSVSSNSAAWSWIRQSPGRGLEWLGIIYKRSKWYNRYAVSVKSRITINPDTSKNQFSLQLNSVTPEDTAVYYCARWHSDKMWGFDDWGQGTLVTVSS
VL: DIVMTQSPLSLPVTPGEPASISCRSSQSLVMSFGNTYLNWYLQKPGQSPQLLIYKGSNRASGVPDRFSGSGSGTDFTLKISRVEAEDVGVYYCQQYDSYPLTFGQGTKVEIKR
On to B4, for which the results for the variant/HC_D62R in experiment [1] and in experiment [2] were 24.2 ratio and 31.3 ratio, respectively.

B5: 4B7 HC N32D+D62Q+H107M+Y112D/LC F31I+S32R+D33R+N35I+D97T (Fab, V domains shown)
VH: QVQLQQSGPGLVKPSQTLSLTCAISGDSVSSDSAAWSWIRQSPGRGLEWLGIIYKRSKWYNQYAVSVKSRITINPDTSKNQFSLQLNSVTPEDTAVYYCARWHSDKMWGFDDWGQGTLVTVSS
VL: DIVMTQSPLSLPVTPGEPASISCRSSQSLVIRRGITYLNWYLQKPGQSPQLLIYKGSNRASGVPDRFSGSGSGTDFTLKISRVEAEDVGVYYCQQYTSYPLTFGQGTKVEIKR
As to B5, the variant/HC_D62R in experiment [1] is 20.2 ratio; in experiment [2], 11.5 ratio.

B6: 4B7 HC D62R+H107M+Y112D/LC S32R+D33F+N35I (Fab, V domains shown)
VH: QVQLQQSGPGLVKPSQTLSLTCAISGDSVSSNSAAWSWIRQSPGRGLEWLGIIYKRSKWYNRYAVSVKSRITINPDTSKNQFSLQLNSVTPEDTAVYYCARWHSDKMWGFDDWGQGTLVTVSS
VL: DIVMTQSPLSLPVTPGEPASISCRSSQSLVFRFGITYLNWYLQKPGQSPQLLIYKGSNRASGVPDRFSGSGSGTDFTLKISRVEAEDVGVYYCQQYDSYPLTFGQGTKVEIKR
Regarding B6, the figures for the variant/HC_D62R in experiment [1] and in experiment [2] were 24.1 ratio and 50.3 ratio, respectively.

B7: 4B7 HC D62R+H107M+Y112D/LC F31M+D33F+N35I (Fab, V domains shown)
VH: QVQLQQSGPGLVKPSQTLSLTCAISGDSVSSNSAAWSWIRQSPGRGLEWLGIIYKRSKWYNRYAVSVKSRITINPDTSKNQFSLQLNSVTPEDTAVYYCARWHSDKMWGFDDWGQGTLVTVSS
VL: DIVMTQSPLSLPVTPGEPASISCRSSQSLVMSFGITYLNWYLQKPGQSPQLLIYKGSNRASGVPDRFSGSGSGTDFTLKISRVEAEDVGVYYCQQYDSYPLTFGQGTKVEIKR
For B7, the variant/HC_D62R in experiment [1] turned out to be 30.9 ratio; in experiment [2], 47 ratio.

B8: 4B7 HC D62R+H107M+Y112D/LC F31I+D33R+N35I (Fab, V domains shown)
VH: QVQLQQSGPGLVKPSQTLSLTCAISGDSVSSNSAAWSWIRQSPGRGLEWLGIIYKRSKWYNRYAVSVKSRITINPDTSKNQFSLQLNSVTPEDTAVYYCARWHSDKMWGFDDWGQGTLVTVSS
VL: DIVMTQSPLSLPVTPGEPASISCRSSQSLVISRGITYLNWYLQKPGQSPQLLIYKGSNRASGVPDRFSGSGSGTDFTLKISRVEAEDVGVYYCQQYDSYPLTFGQGTKVEIKR
Take B8: the variant/HC_D62R in experiment [1] was 22 ratio; in experiment [2], 35.4 ratio.

B9: 4B7 HC D62R+H107M+Y112D/LC F31I+S32R+D33F+N35I+D97T (Fab, V domains shown)
VH: QVQLQQSGPGLVKPSQTLSLTCAISGDSVSSNSAAWSWIRQSPGRGLEWLGIIYKRSKWYNRYAVSVKSRITINPDTSKNQFSLQLNSVTPEDTAVYYCARWHSDKMWGFDDWGQGTLVTVSS
VL: DIVMTQSPLSLPVTPGEPASISCRSSQSLVIRFGITYLNWYLQKPGQSPQLLIYKGSNRASGVPDRFSGSGSGTDFTLKISRVEAEDVGVYYCQQYTSYPLTFGQGTKVEIKR
With B9, the variant/HC_D62R stood at 20.4 ratio in experiment [1] and 18.2 ratio in experiment [2].

B10: 4B7 HC D62R+H107M+Y112D/LC N35T+D97T (Fab, V domains shown)
VH: QVQLQQSGPGLVKPSQTLSLTCAISGDSVSSNSAAWSWIRQSPGRGLEWLGIIYKRSKWYNRYAVSVKSRITINPDTSKNQFSLQLNSVTPEDTAVYYCARWHSDKMWGFDDWGQGTLVTVSS
VL: DIVMTQSPLSLPVTPGEPASISCRSSQSLVFSDGTTYLNWYLQKPGQSPQLLIYKGSNRASGVPDRFSGSGSGTDFTLKISRVEAEDVGVYYCQQYTSYPLTFGQGTKVEIKR
Regarding B10, the values for the variant/HC_D62R in experiment [1] and in experiment [2] were 20.1 ratio and 19.4 ratio, respectively.

B11: 4B7 HC D62R+H107M+Y112D/LC D33F+N35I (Fab, V domains shown)
VH: QVQLQQSGPGLVKPSQTLSLTCAISGDSVSSNSAAWSWIRQSPGRGLEWLGIIYKRSKWYNRYAVSVKSRITINPDTSKNQFSLQLNSVTPEDTAVYYCARWHSDKMWGFDDWGQGTLVTVSS
VL: DIVMTQSPLSLPVTPGEPASISCRSSQSLVFSFGITYLNWYLQKPGQSPQLLIYKGSNRASGVPDRFSGSGSGTDFTLKISRVEAEDVGVYYCQQYDSYPLTFGQGTKVEIKR
On to B11, for which the results for the variant/HC_D62R in experiment [1] and in experiment [2] were 20 ratio and 36.6 ratio, respectively.

B12: 4B7 HC N32D+D62Q+H107M+Y112D/LC D33R+N35T (Fab, V domains shown)
VH: QVQLQQSGPGLVKPSQTLSLTCAISGDSVSSDSAAWSWIRQSPGRGLEWLGIIYKRSKWYNQYAVSVKSRITINPDTSKNQFSLQLNSVTPEDTAVYYCARWHSDKMWGFDDWGQGTLVTVSS
VL: DIVMTQSPLSLPVTPGEPASISCRSSQSLVFSRGTTYLNWYLQKPGQSPQLLIYKGSNRASGVPDRFSGSGSGTDFTLKISRVEAEDVGVYYCQQYDSYPLTFGQGTKVEIKR
On to B12, for which the variant/HC_D62R in experiment [1] was found to be 23.7 ratio; in experiment [2] it was 18.8 ratio.

B13: 4B7 HC N32D+D62Q+H107M+Y112D/LC F31M+D33F+N35T+Y37F (Fab, V domains shown)
VH: QVQLQQSGPGLVKPSQTLSLTCAISGDSVSSDSAAWSWIRQSPGRGLEWLGIIYKRSKWYNQYAVSVKSRITINPDTSKNQFSLQLNSVTPEDTAVYYCARWHSDKMWGFDDWGQGTLVTVSS
VL: DIVMTQSPLSLPVTPGEPASISCRSSQSLVMSFGTTFLNWYLQKPGQSPQLLIYKGSNRASGVPDRFSGSGSGTDFTLKISRVEAEDVGVYYCQQYDSYPLTFGQGTKVEIKR
In the case of B13, the values for the variant/HC_D62R in experiment [1] and in experiment [2] were 19.4 ratio and 35.3 ratio, respectively.

B14: 4B7 HC D62R+Y112D/LC S32R+D33F+N35I (Fab, V domains shown)
VH: QVQLQQSGPGLVKPSQTLSLTCAISGDSVSSNSAAWSWIRQSPGRGLEWLGIIYKRSKWYNRYAVSVKSRITINPDTSKNQFSLQLNSVTPEDTAVYYCARWHSDKHWGFDDWGQGTLVTVSS
VL: DIVMTQSPLSLPVTPGEPASISCRSSQSLVFRFGITYLNWYLQKPGQSPQLLIYKGSNRASGVPDRFSGSGSGTDFTLKISRVEAEDVGVYYCQQYDSYPLTFGQGTKVEIKR
Regarding B14, the results for the variant/HC_D62R in experiment [1] and in experiment [2] were 21.9 ratio and 39.9 ratio, respectively.

B15: 4B7 HC D62S+H107M+Y112D/LC S32R+D33F+N35I (Fab, V domains shown)
VH: QVQLQQSGPGLVKPSQTLSLTCAISGDSVSSNSAAWSWIRQSPGRGLEWLGIIYKRSKWYNSYAVSVKSRITINPDTSKNQFSLQLNSVTPEDTAVYYCARWHSDKMWGFDDWGQGTLVTVSS
VL: DIVMTQSPLSLPVTPGEPASISCRSSQSLVFRFGITYLNWYLQKPGQSPQLLIYKGSNRASGVPDRFSGSGSGTDFTLKISRVEAEDVGVYYCQQYDSYPLTFGQGTKVEIKR
In the case of B15, the variant/HC_D62R in experiment [1] came out at 18.2 ratio; in experiment [2] it was 31.7 ratio.

B16: 4B7 HC N32D+D62Q+H107M+Y112D/LC F31M+S32R+D33F+N35I+D97T (Fab, V domains shown)
VH: QVQLQQSGPGLVKPSQTLSLTCAISGDSVSSDSAAWSWIRQSPGRGLEWLGIIYKRSKWYNQYAVSVKSRITINPDTSKNQFSLQLNSVTPEDTAVYYCARWHSDKMWGFDDWGQGTLVTVSS
VL: DIVMTQSPLSLPVTPGEPASISCRSSQSLVMRFGITYLNWYLQKPGQSPQLLIYKGSNRASGVPDRFSGSGSGTDFTLKISRVEAEDVGVYYCQQYTSYPLTFGQGTKVEIKR
Take B16: the figures for the variant/HC_D62R in experiment [1] and in experiment [2] were 19 ratio and 12 ratio, respectively.

B17: 4B7 HC D62Q+Y112D/LC S32R+D33F+N35I (Fab, V domains shown)
VH: QVQLQQSGPGLVKPSQTLSLTCAISGDSVSSNSAAWSWIRQSPGRGLEWLGIIYKRSKWYNQYAVSVKSRITINPDTSKNQFSLQLNSVTPEDTAVYYCARWHSDKHWGFDDWGQGTLVTVSS
VL: DIVMTQSPLSLPVTPGEPASISCRSSQSLVFRFGITYLNWYLQKPGQSPQLLIYKGSNRASGVPDRFSGSGSGTDFTLKISRVEAEDVGVYYCQQYDSYPLTFGQGTKVEIKR
For the molecule B17, the variant/HC_D62R in experiment [1] is 23.6 ratio; in experiment [2], 38.1 ratio.
